{
  "source": "patent US20240174727A1",
  "about": "“LONG-ACTING NATRIURETIC PEPTIDES AND USES THEREOF” (Eli Lilly and Company, priority 2022, published 2024)",
  "binders": {"B1": {"name": "Example 1 (peptide)", "peptide": "XEKEKEKGSXRRSSCFGGRIDRIGHQSGLGCPSFRHGGPSSGAPPPS", "modifications": "HOOC-(CH2)18-CO-(γGlu)-EKEKEKGS-4Pal-RRSS[CFGGRIDRIGHQSGLGC]PSFRHGGPSSGAPPPS-NH2; disulfide linkage between the bracketed Cys"}, "B2": {"name": "Example 2 (peptide)", "peptide": "B1 peptide", "modifications": "HOOC-(CH2)18-CO-(γGlu)-EKEKEKGS-4Pal-RRSS[CFGGRIDRIGHQSGLGC]PSFRHGGPSSGAPPPS-NH2; thioacetal linkage between the bracketed Cys"}, "B3": {"name": "rat ANP (amidated) (peptide)", "peptide": "SLRRSSCFGGRIDRIGAQSGLGCNSFRY-NH2", "modifications": "disulfide 7-23; N-terminus assumed", "SMILES": "CC[C@H](C)[C@@H]1NC(=O)[C@H](CCCNC(=N)N)NC(=O)[C@H](CC(=O)O)NC(=O)[C@H]([C@@H](C)CC)NC(=O)[C@H](CCCNC(=N)N)NC(=O)CNC(=O)CNC(=O)[C@H](Cc2ccccc2)NC(=O)[C@@H](NC(=O)[C@H](CO)NC(=O)[C@H](CO)NC(=O)[C@H](CCCNC(=N)N)NC(=O)[C@H](CCCNC(=N)N)NC(=O)[C@H](CC(C)C)NC(=O)[C@@H](N)CO)CSSC[C@@H](C(=O)N[C@@H](CC(N)=O)C(=O)N[C@@H](CO)C(=O)N[C@@H](Cc2ccccc2)C(=O)N[C@@H](CCCNC(=N)N)C(=O)N[C@@H](Cc2ccc(O)cc2)C(N)=O)NC(=O)CNC(=O)[C@H](CC(C)C)NC(=O)CNC(=O)[C@H](CO)NC(=O)[C@H](CCC(N)=O)NC(=O)[C@H](C)NC(=O)CNC1=O"}},
  "note": "Numbered stars: 1 amine (or outer) side, 2 acyl side, 3 side chain; on linkers, the order of the positions; unused ones are H or OH. Bridge positions count the residues as written; N and C are the ends. Square brackets hold non-standard residues; d marks the D form. Ends that are not written are not given here. * marks the point of attachment. thioacetal = thioacetal linkage between two cysteines (intrachain bond at the bracketed Cys); C20 diacid = O=C(O)CCCCCCCCCCCCCCCCCCC(=O)*; γGlu = O=C(O)[C@H](CCC(=O)[*:2])N[*:1]; 4Pal = N[C@@H](Cc1ccncc1)C(=O)O; βAla = NCCC(=O)O",
  "data": [
    {"target": "T1, human NPRA (human, UniProt P16066 33-1061)", "T1 sequence (looked up)": "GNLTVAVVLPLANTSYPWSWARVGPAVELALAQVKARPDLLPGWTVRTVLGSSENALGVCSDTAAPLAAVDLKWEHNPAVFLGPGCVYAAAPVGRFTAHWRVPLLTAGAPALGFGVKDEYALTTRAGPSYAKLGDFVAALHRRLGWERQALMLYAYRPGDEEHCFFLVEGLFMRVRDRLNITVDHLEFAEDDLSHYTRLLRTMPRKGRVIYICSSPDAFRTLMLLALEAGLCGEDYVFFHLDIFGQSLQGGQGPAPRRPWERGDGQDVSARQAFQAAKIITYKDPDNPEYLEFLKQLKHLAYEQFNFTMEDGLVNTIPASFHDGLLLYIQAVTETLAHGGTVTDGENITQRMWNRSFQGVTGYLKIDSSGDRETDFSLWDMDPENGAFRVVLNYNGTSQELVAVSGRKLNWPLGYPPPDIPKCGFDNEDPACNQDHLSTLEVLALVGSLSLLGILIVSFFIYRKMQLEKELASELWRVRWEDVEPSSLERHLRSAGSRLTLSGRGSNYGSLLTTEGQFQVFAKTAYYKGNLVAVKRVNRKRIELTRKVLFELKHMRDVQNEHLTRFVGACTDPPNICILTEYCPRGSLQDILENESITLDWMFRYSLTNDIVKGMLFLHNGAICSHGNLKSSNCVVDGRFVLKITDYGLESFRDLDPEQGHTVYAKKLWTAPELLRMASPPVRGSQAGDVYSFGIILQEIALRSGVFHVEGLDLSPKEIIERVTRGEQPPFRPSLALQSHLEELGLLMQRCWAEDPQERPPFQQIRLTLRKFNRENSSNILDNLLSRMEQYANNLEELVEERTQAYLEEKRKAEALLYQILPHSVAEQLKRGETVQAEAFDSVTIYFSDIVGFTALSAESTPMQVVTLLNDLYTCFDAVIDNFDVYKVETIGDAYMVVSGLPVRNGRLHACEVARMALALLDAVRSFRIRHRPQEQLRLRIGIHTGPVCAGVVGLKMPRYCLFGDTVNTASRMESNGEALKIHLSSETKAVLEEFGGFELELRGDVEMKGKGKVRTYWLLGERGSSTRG", "experiment": "cell-based or functional assay", "units": {"cGMP Assay (EC50, pM) w/BSA": "pM", "cGMP Assay (EC50, pM) w/Casein": "pM"}, "values": [
      {"binder": "{C20 diacid}-[γGlu]EKEKEKGS[4Pal]KRSSCFGGKIDRIGHQSGLGCPSFRHKITAKEDE-NH2 (disulfide 15-31)", "note": "[Example 34]", "cGMP Assay (EC50, pM) w/BSA": 26100, "cGMP Assay (EC50, pM) w/Casein": 291},
      {"binder": "B1", "cGMP Assay (EC50, pM) w/BSA": 11600, "cGMP Assay (EC50, pM) w/Casein": 335},
      {"binder": "B2", "cGMP Assay (EC50, pM) w/BSA": 93400, "cGMP Assay (EC50, pM) w/Casein": 1020},
      {"binder": "{C20 diacid}-[γGlu]EKEKEKGEK[βAla]RSSCFGGRIDRIGHYSGLGCPSFRHGGPSSGAPPPS-NH2 (bridge 15-31 via thioacetal)", "note": "[Example 56]", "cGMP Assay (EC50, pM) w/BSA": 145000, "cGMP Assay (EC50, pM) w/Casein": 855},
      {"binder": "{C20 diacid}-[γGlu]EKEKEKGS[4Pal]RRSSCFGGRIDRIGHQSGLGCPSFRHSGAPPPSE-NH2 (disulfide 15-31)", "note": "[Example 39]", "cGMP Assay (EC50, pM) w/BSA": 9970, "cGMP Assay (EC50, pM) w/Casein": 276},
      {"binder": "B3", "cGMP Assay (EC50, pM) w/BSA": 138, "cGMP Assay (EC50, pM) w/Casein": 128},
      {"binder": "{C20 diacid}-[γGlu]EKEKEKGEKGRSSCFGGRIDRIGHYSGLGCPSLRHGGPSSGAPPPS-NH2 (disulfide 15-31)", "note": "[Example 51]", "cGMP Assay (EC50, pM) w/BSA": 11100, "cGMP Assay (EC50, pM) w/Casein": 361},
      {"binder": "{C20 diacid}-[γGlu]EKEKEKGKE[βAla]RSSCFGGRIDRIGHYSGLGCPSFRHGGPSSGAPPPS-NH2 (bridge 15-31 via thioacetal)", "note": "[Example 58]", "cGMP Assay (EC50, pM) w/BSA": 104000, "cGMP Assay (EC50, pM) w/Casein": 1220},
      {"binder": "{C20 diacid}-[γGlu]EKEKEKGEK[βAla]RSSCFGGRIDRIGHYSGLGCPSFRHGGPSSGAPPPS-NH2 (disulfide 15-31)", "note": "[Example 54]", "cGMP Assay (EC50, pM) w/BSA": 19300, "cGMP Assay (EC50, pM) w/Casein": 369}
    ]},
    {"target": "T2, rat NPRA (rat, UniProt P18910 29-1057)", "T2 sequence (looked up)": "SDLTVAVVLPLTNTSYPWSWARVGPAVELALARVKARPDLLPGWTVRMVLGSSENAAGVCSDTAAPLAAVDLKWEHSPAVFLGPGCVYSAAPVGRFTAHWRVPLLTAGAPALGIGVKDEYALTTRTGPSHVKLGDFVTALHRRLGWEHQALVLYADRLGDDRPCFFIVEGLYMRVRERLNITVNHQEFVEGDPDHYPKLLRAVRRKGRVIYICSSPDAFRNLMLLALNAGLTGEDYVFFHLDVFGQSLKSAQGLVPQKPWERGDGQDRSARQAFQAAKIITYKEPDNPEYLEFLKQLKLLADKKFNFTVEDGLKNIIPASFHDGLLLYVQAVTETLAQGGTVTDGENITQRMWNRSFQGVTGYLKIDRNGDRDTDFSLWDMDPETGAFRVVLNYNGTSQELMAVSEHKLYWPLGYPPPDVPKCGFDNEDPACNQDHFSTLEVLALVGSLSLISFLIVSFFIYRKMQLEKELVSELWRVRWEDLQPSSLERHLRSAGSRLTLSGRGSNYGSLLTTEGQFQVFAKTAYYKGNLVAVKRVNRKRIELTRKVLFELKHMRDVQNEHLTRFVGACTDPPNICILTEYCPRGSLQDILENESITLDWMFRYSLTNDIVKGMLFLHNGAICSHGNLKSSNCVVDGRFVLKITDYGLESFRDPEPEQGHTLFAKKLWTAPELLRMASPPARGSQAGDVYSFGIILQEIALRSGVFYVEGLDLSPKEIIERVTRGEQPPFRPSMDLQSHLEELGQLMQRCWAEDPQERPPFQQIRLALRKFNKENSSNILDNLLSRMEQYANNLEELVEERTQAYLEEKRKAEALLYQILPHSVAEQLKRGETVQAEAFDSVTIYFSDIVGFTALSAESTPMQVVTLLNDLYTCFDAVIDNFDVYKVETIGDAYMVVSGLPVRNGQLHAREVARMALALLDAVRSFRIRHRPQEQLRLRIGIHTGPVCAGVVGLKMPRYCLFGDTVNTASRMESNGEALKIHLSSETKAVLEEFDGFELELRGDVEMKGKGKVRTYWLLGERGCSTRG", "experiment": "cell-based or functional assay", "units": {"cGMP Assay (EC50, pM) w/BSA": "pM", "cGMP Assay (EC50, pM) w/Casein": "pM"}, "values": [
      {"binder": "{C20 diacid}-[γGlu]EKEKEKGS[4Pal]KRSSCFGGKIDRIGHQSGLGCPSFRHKITAKEDE-NH2 (disulfide 15-31)", "note": "[Example 34]", "cGMP Assay (EC50, pM) w/BSA": 422000, "cGMP Assay (EC50, pM) w/Casein": 1200},
      {"binder": "B1", "cGMP Assay (EC50, pM) w/BSA": 81900, "cGMP Assay (EC50, pM) w/Casein": 1810},
      {"binder": "B2", "cGMP Assay (EC50, pM) w/BSA": "1.27e+06", "cGMP Assay (EC50, pM) w/Casein": 14100},
      {"binder": "{C20 diacid}-[γGlu]EKEKEKGEK[βAla]RSSCFGGRIDRIGHYSGLGCPSFRHGGPSSGAPPPS-NH2 (bridge 15-31 via thioacetal)", "note": "[Example 56]", "cGMP Assay (EC50, pM) w/BSA": "1.38e+06", "cGMP Assay (EC50, pM) w/Casein": 11200},
      {"binder": "{C20 diacid}-[γGlu]EKEKEKGS[4Pal]RRSSCFGGRIDRIGHQSGLGCPSFRHSGAPPPSE-NH2 (disulfide 15-31)", "note": "[Example 39]", "cGMP Assay (EC50, pM) w/BSA": 93300, "cGMP Assay (EC50, pM) w/Casein": 439},
      {"binder": "B3", "cGMP Assay (EC50, pM) w/BSA": 114, "cGMP Assay (EC50, pM) w/Casein": 73},
      {"binder": "{C20 diacid}-[γGlu]EKEKEKGEKGRSSCFGGRIDRIGHYSGLGCPSLRHGGPSSGAPPPS-NH2 (disulfide 15-31)", "note": "[Example 51]", "cGMP Assay (EC50, pM) w/BSA": 82700, "cGMP Assay (EC50, pM) w/Casein": 909},
      {"binder": "{C20 diacid}-[γGlu]EKEKEKGKE[βAla]RSSCFGGRIDRIGHYSGLGCPSFRHGGPSSGAPPPS-NH2 (bridge 15-31 via thioacetal)", "note": "[Example 58]", "cGMP Assay (EC50, pM) w/BSA": "1.38e+06", "cGMP Assay (EC50, pM) w/Casein": 7150},
      {"binder": "{C20 diacid}-[γGlu]EKEKEKGEK[βAla]RSSCFGGRIDRIGHYSGLGCPSFRHGGPSSGAPPPS-NH2 (disulfide 15-31)", "note": "[Example 54]", "cGMP Assay (EC50, pM) w/BSA": 77200, "cGMP Assay (EC50, pM) w/Casein": 796}
    ]}
  ]
}
